Columns and labels:
Assay in all cases: cell_activity
piggyBac transposase = details: HEK293 transposition; 9.8 CHO, 14.5 HeLa, 5.7 H1299; excision PCR positive
[1] = test system: Sleeping Beauty SB11 transposase; details: HEK293 transposition; 2.9 CHO, 2.7 HeLa, 1.0 (inactive) H1299; excision PCR positive
Tol2 transposase = details: HEK293 transposition; 3.3 CHO, 5.4 HeLa, 4.1 H1299

TGATTATCTTTCTAGGG (double strand) [piggyBac terminal repeat donor (printed repeat end)]
activity (fold over control) (piggyBac transposase): 115

Sleeping Beauty terminal repeat donor plasmid
activity (fold over control) [1]: 8.1

Tol2 terminal repeat donor plasmid
activity (fold over control) (Tol2 transposase): 93.9
